T1: Flag tagged recombinant DLL3 (Adipogen) (Homo sapiens (Human), UniProt Q9NYJ7 27-492)
T1 construct: Bought reagent; also called Flag-DLL3
T1 sequence: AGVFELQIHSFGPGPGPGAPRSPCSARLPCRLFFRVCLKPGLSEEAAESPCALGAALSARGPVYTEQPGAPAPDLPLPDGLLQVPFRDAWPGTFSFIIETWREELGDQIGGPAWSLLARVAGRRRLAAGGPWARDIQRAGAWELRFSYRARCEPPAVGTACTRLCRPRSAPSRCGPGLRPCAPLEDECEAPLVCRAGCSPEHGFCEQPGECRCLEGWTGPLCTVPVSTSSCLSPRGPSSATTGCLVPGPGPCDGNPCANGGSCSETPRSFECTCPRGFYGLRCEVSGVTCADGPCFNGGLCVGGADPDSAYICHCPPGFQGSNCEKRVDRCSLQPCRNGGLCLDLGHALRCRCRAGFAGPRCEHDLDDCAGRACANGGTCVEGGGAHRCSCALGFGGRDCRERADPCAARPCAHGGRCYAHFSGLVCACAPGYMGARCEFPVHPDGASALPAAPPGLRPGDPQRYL


Assays:
[1] = biological target: T1, Flag tagged recombinant DLL3 (Adipogen); experiment: flow cytometry, percent of T cells that recognise recombinant DLL3, Donor 503
Procedure: (§1) To determine the percentage of T cells that were successfully transduced with DLL3 CAR, T cells were first incubated with 1 ug/ml Flag tagged recombinant DLL3 (Adipogen) in PBS+1% BSA for 20 minutes at 4 C.

[2] = biological target: T1, Flag tagged recombinant DLL3 (Adipogen); experiment: flow cytometry, percent of T cells that recognise recombinant DLL3, Donor 419
Procedure: as §1

[3] = biological target: T1, Flag tagged recombinant DLL3 (Adipogen); experiment: flow cytometry, primary T cells with the CAR, 1 ug/ml Flag tagged recombinant DLL3, PE anti-Flag
Procedure: as §1

[4] = biological target: T1, Flag tagged recombinant DLL3 (Adipogen); experiment: flow cytometry, percent of T cells that recognise recombinant DLL3, Donor 117
Procedure: as §1

[5] = biological target: T1, Flag tagged recombinant DLL3 (Adipogen); experiment: flow cytometry, percent of T cells that recognise recombinant DLL3, Donor 116
Procedure: as §1

Binder | Transduction efficiency [1] [%] | Transduction efficiency [2] [%] | Rec-DLL3 gate, percent of live CD3+ cells [3] [%] | Transduction efficiency [4] [%] | Transduction efficiency [5] [%]
11E4 (other, also called anti-DLL3 CAR with 11E4 scFv, on primary T cells) CAR: QVQLQESGPGLVKPSETLSLTCTVSGGSISSYYWSWIRQSPGKGLEWIGYVYYSDITNYNPSLKSRVTISVDTSKNQFSLNLNSVTAADTAFYFCARIGVAGFYFDYWGQGTLVTVSSGGGGSGGGGSGGGGSGGGGSEIVLTQSPDTLSLSPGERATLSCRASQSVSRRYLAWYQQKPGQAPRLLIYGASSRATGIPDRFSGSGSGTDFTLTISRLEPEDFEVYYCQQYGTSPITFGQGTRLEIKTTTPAPRPPTPAPTIASQPLSLRPEACRPAAGGAVHTRGLDFACDIYIWAPLAGTCGVLLLSLVITKRGRKKLLYIFKQPFMRPVQTTQEEDGCSCRFPEEEEGGCELRVKFSRSADAPAYQQGQNQLYNELNLGRREEYDVLDKRRGRDPEMGGKPRRKNPQEGLYNELQKDKMAEAYSEIGMKGERRRGKGHDGLYQGLSTATKDTYDALHMQALPPR | 62.8 | 54.8 | – | – | –
10A2 (other, also called anti-DLL3 CAR with 10A2 scFv, on primary T cells) CAR: QVQLQQSGPGLVKPSETLSLTCAISGDSVSSNSATWNWIRQSPSRGLEWLGRTYYRSEWYNDYAVSVKSRITINPDTSKNHLSLHLNSVTPEDTAVYYCAGGGIVGAPDGFDVWGQGTMVTVSSGGGGSGGGGSGGGGSGGGGSQSVLTQPPSASGTPGQRVTISCSGSSSNIGSDPVIWYQQLPRTAPKLLIYSNNQRPSGVPDRFSGSKSGTSASLAISGLQSEDEADYYCAAWDDSLNGYVFGTGTKVTVLTTTPAPRPPTPAPTIASQPLSLRPEACRPAAGGAVHTRGLDFACDIYIWAPLAGTCGVLLLSLVITKRGRKKLLYIFKQPFMRPVQTTQEEDGCSCRFPEEEEGGCELRVKFSRSADAPAYQQGQNQLYNELNLGRREEYDVLDKRRGRDPEMGGKPRRKNPQEGLYNELQKDKMAEAYSEIGMKGERRRGKGHDGLYQGLSTATKDTYDALHMQALPPR | 67.6 | 58.5 | – | – | –
5G2 (other, also called anti-DLL3 CAR with 5G2 scFv, on primary T cells) CAR: QVQLQQSGPGLVKPSQTLSLTCAISGDSVSSNSAVWNWIRQSPSRGLEWLGWTYYRSKYYNDYAVSLKSRITINPDTSKNQFSLQLNSLTPEDTAVYYCTRGGIVGAPDGFDIWGQGTMVTVSSGGGGSGGGGSGGGGSGGGGSQSALTQPPSASGTPGQRVTISCSGSNSNIGSNPINWYQQLPGTAPKLLIYSNNQRPSGVPDRFSGSKSGTSASLAISGLQSEDEADYYCAAWDDSLNGHVFGTGTKVTVLTTTPAPRPPTPAPTIASQPLSLRPEACRPAAGGAVHTRGLDFACDIYIWAPLAGTCGVLLLSLVITKRGRKKLLYIFKQPFMRPVQTTQEEDGCSCRFPEEEEGGCELRVKFSRSADAPAYQQGQNQLYNELNLGRREEYDVLDKRRGRDPEMGGKPRRKNPQEGLYNELQKDKMAEAYSEIGMKGERRRGKGHDGLYQGLSTATKDTYDALHMQALPPR | 42.8 | 36.7 | – | – | –
11A8 (other, also called anti-DLL3 CAR with 11A8 scFv, on primary T cells) CAR: QVQLQQSGPGLVKPSQTLSLTCAISGDSVSSNSATWNWIRQSPSTGLEWLARTYYRSKWYNDYEVSVKSQITINPDTSKNQFSLQLNSVTPEDTAVYYCARGGIVGAPDAFDIWGQGTMVTVSSGGGGSGGGGSGGGGSGGGGSQSVLTQPPSASGTPGQGVTISCSGSSSNIGSNPVNWYQQLPGTAPKLLIYSNNQRPSGVPDRFSDSKSGTSASLAISGLQSEDEADYYCSAWDDWLNGYVFGTGTKVTVLTTTPAPRPPTPAPTIASQPLSLRPEACRPAAGGAVHTRGLDFACDIYIWAPLAGTCGVLLLSLVITKRGRKKLLYIFKQPFMRPVQTTQEEDGCSCRFPEEEEGGCELRVKFSRSADAPAYQQGQNQLYNELNLGRREEYDVLDKRRGRDPEMGGKPRRKNPQEGLYNELQKDKMAEAYSEIGMKGERRRGKGHDGLYQGLSTATKDTYDALHMQALPPR | 45.1 | 33.4 | – | – | –
2A6.C5 (other, also called anti-DLL3 CAR with 2A6.C5 scFv, on primary T cells) CAR: QVQLQESGPGLVKPSETLSLTCTVSNVSISSYYWSWIRQPPGKGLEWIGYIYYSGTTNYNPSLKSRVTMSVDTSKNQFSLKLSSVTAADTAVYFCARLSNWGFAFDIWGQGTMVTFSSGGGGSGGGGSGGGGSGGGGSEIVLTQSPGTLSLSPGERATLSCRASQTISSSYLAWYQQKPGQAPRLLIYGASSRATGIPDRFSGSGSGTEFTLTISRLEPEDFAVYYCQQYGWSPITFGQGTRLEIKTTTPAPRPPTPAPTIASQPLSLRPEACRPAAGGAVHTRGLDFACDIYIWAPLAGTCGVLLLSLVITKRGRKKLLYIFKQPFMRPVQTTQEEDGCSCRFPEEEEGGCELRVKFSRSADAPAYQQGQNQLYNELNLGRREEYDVLDKRRGRDPEMGGKPRRKNPQEGLYNELQKDKMAEAYSEIGMKGERRRGKGHDGLYQGLSTATKDTYDALHMQALPPR | – | – | 37.2 | 37.7 | 37.2
2D3 (other, also called anti-DLL3 CAR with 2D3 scFv, on primary T cells) CAR: QVQLQESGPGLVKPSETLSLTCTVSDNSISNYYWSWIRQPPGKGLEWIAYIYYSGTTNYNPSLKSRVTISLDTSKNQFSLKLSSVTAADTAVYYCARLFNWGFAFDIWGQGTMVTVSSGGGGSGGGGSGGGGSGGGGSEIVMTQSPATLSVSPGERATLSCRASQSVSSNLAWYQQKPGQAPRLLIYGASTRATGIPARFSGSGSGTEFTLTISSLQSEDFAVYYCQQYNNWPLTFGGGTKVEIKTTTPAPRPPTPAPTIASQPLSLRPEACRPAAGGAVHTRGLDFACDIYIWAPLAGTCGVLLLSLVITKRGRKKLLYIFKQPFMRPVQTTQEEDGCSCRFPEEEEGGCELRVKFSRSADAPAYQQGQNQLYNELNLGRREEYDVLDKRRGRDPEMGGKPRRKNPQEGLYNELQKDKMAEAYSEIGMKGERRRGKGHDGLYQGLSTATKDTYDALHMQALPPR | – | – | 46.1 | 47.4 | 46.1

More lines, now with the values ahead:

Transduction efficiency [1] [%] | Transduction efficiency [2] [%] | Rec-DLL3 gate, percent of live CD3+ cells [3] [%] | Transduction efficiency [4] [%] | Transduction efficiency [5] [%] | Binder
7.95 | 6.15 | – | – | – | 3B1 (other, also called anti-DLL3 CAR with 3B1 scFv, on primary T cells) CAR: QVQLQQSGPGLVKPSQTLSLTCAISGDSVSSNTTAWKWSRQSPSKGLEWLGWTYYRSKWYYDYTVSVKSRITINPDTSKNQFSLQLNSVTPEDTAVYYCARWIFHDAFDIWGQGTMVTVSSGGGGSGGGGSGGGGSGGGGSQSALTQPPSASGTPGQRVTISCSGSSSNIGSNTVNWYQQLPGTAPKLLIYTNNQRPSGVPDRFSGSKSGTSASLAISGLQSEDEADYFCSTWDDSLNGPVFGGGTKLTVLTTTPAPRPPTPAPTIASQPLSLRPEACRPAAGGAVHTRGLDFACDIYIWAPLAGTCGVLLLSLVITKRGRKKLLYIFKQPFMRPVQTTQEEDGCSCRFPEEEEGGCELRVKFSRSADAPAYQQGQNQLYNELNLGRREEYDVLDKRRGRDPEMGGKPRRKNPQEGLYNELQKDKMAEAYSEIGMKGERRRGKGHDGLYQGLSTATKDTYDALHMQALPPR
65.8 | 57.3 | – | – | – | 3B11 (other, also called anti-DLL3 CAR with 3B11 scFv, on primary T cells) CAR: QVQLQQSGPGLVKPSQTLSLTCAISGDSVSSNSVVWNWIRQSPSRGLEWLGRTYYRSKWYDDYAVSVKSRITINPDTSKNQFSLQLNSVTPEDTAVYHCARGGIVGAPDAFDIWGQGTMVTVSSGGGGSGGGGSGGGGSGGGGSQSVLTQPPSASGTPGQRVTISCSGSSSNIGSDPVSWYQQFPGTAPKLLIYTNNQRPSGVPDRFSGSKSGTSASLAISGLQSEDEADYYCAAWDDSLNGHVFGTGTKVTVLTTTPAPRPPTPAPTIASQPLSLRPEACRPAAGGAVHTRGLDFACDIYIWAPLAGTCGVLLLSLVITKRGRKKLLYIFKQPFMRPVQTTQEEDGCSCRFPEEEEGGCELRVKFSRSADAPAYQQGQNQLYNELNLGRREEYDVLDKRRGRDPEMGGKPRRKNPQEGLYNELQKDKMAEAYSEIGMKGERRRGKGHDGLYQGLSTATKDTYDALHMQALPPR
6.41 | 6.01 | – | – | – | 2404.6H1 (other, also called anti-DLL3 CAR with 2404.6H1 scFv, on primary T cells) CAR: QVQLVESGGGVVQPGRSLRLSCAASGFTFSSYGMHWVRQTPGKGLEWVAVISYDGNSNYYADSVKGRFTISRDNSKNTLYLQMNSLRAEDTAVYYCARDGATVTSYYYYGMDVWGQGTTVTVSSGGGGSGGGGSGGGGSGGGGSEIVLTQSPGTLSLSPGERATLSCRASQSVSRTYLAWYHQKPGQAPRLLIYGASSRATGISDRFSGSGSGTDFTLTISRLEPEDFAVYYCQQYGTSPITFGQGTRLEIKTTTPAPRPPTPAPTIASQPLSLRPEACRPAAGGAVHTRGLDFACDIYIWAPLAGTCGVLLLSLVITKRGRKKLLYIFKQPFMRPVQTTQEEDGCSCRFPEEEEGGCELRVKFSRSADAPAYQQGQNQLYNELNLGRREEYDVLDKRRGRDPEMGGKPRRKNPQEGLYNELQKDKMAEAYSEIGMKGERRRGKGHDGLYQGLSTATKDTYDALHMQALPPR
3.18 | 2.35 | – | – | – | 4E1 (other, also called anti-DLL3 CAR with 4E1 scFv, on primary T cells) CAR: QVQLQQSGPGLVKPSQTLSLTCAISGDNVSTNSAAWNWIRQSPSRGLEWLGWTYYRSKWYNDYAVSLKSRININPDTSKNQFSLQLNSVTPEDTAVYYCARWVNRDVFDIWGQGTMVTVSSGGGGSGGGGSGGGGSGGGGSQSALTQPASVSGSPGQSITISCTGTSSDVGSYNLVSWYQQHPGKAPKLMIYEGSKRPSGVSNRFSGSKSGNTASLTISGLQAEDEADYYCCSYAGSSTWVFGGGTKLTVLTTTPAPRPPTPAPTIASQPLSLRPEACRPAAGGAVHTRGLDFACDIYIWAPLAGTCGVLLLSLVITKRGRKKLLYIFKQPFMRPVQTTQEEDGCSCRFPEEEEGGCELRVKFSRSADAPAYQQGQNQLYNELNLGRREEYDVLDKRRGRDPEMGGKPRRKNPQEGLYNELQKDKMAEAYSEIGMKGERRRGKGHDGLYQGLSTATKDTYDALHMQALPPR
